The target of the assay is recombinant β subunit of human MUC4 mucin (rMUC4β) (human). As to the kind of experiment: native gel or EMSA; Blue Native PAGE of purified rMUC4β following thermal denaturation, non-reducing conditions; western blot with anti-His tag mAb.

On to “recombinant β subunit of human MUC4 mucin (rMUC4β) (domain or fragment)”, for which the stoichiometry N was found to be 2.

Values taken from article PMC8660890.
